A value given as a limit tells only on which side of the number the result lay.

For this test, the target named is human low-density lipoprotein (LDL) particles (human). The test is described as follows: co-sedimentation.

In turn, “PCSK9 A44P (from UniProt Q8NBP7) (natural protein)” returned a percent inhibition of LDL binding against WT above 90%.
The substance “PCSK9 Y38A (from UniProt Q8NBP7) (natural protein)” returned a percent decrease of LDL binding above 50%.
